Results from patent US20060198851A1 (Janssen / Centocor, published 2006).
No end group written: not given here.

T1: biotinylated DAE peptide (immobilized Aβ peptide) (human, UniProt P05067 672-681, limits assumed, also: biotinylated, site not given here)
T1 construct: domain: Aβ peptide (bio-DAE peptide; bio-DAE10); Immobilized on streptavidin biosensor chips for BIAcore; also called bio-DAE peptide; bio-DAE10
T1 peptide (looked up): DAEFRHDSGY


Assays:
[1] = target: T2, synthetic Aβ1-42 (aggregated in the ELISAs) (human, UniProt P05067 672-713); assay: Aβ 1-42 binding ELISA
T2 construct: range 672-713; also called aggregated Aβ1-42; aggregated synthetic Aβ1-42

[2] = target: T2, synthetic Aβ1-42 (aggregated in the …); assay: competitive Aβ1-42 ELISA, competitor biotin conjugated m12A11Cγ2a (FIG. 12)
[3] = target: T2, synthetic Aβ1-42 (aggregated in the …); assay: competitive Aβ1-42 ELISA; competitor: biotin conjugated m12A11Cγ2a at a fixed concentration
[4] = target: T1, biotinylated DAE peptide (immobilized …); assay: BIAcore (SPR), biotinylated DAE peptide on streptavidin chip, antibody in solution; bivalent model, global analysis

EC50 (read off the curve) [1] [µg/mL]	IC50 fold against murine and chimeric 12A11 [2] [fold]	IC50 (read off the curve) [3] [µg/mL]	Ka [4] [M⁻¹]	Kd [4] [nM]	koff [4] [s⁻¹]	kon [4] [M⁻¹ s⁻¹]	Binder
~0.04	–	–	–	–	–	–	humanized 3D6 (antibody, V domains shown) VH: EVQLVESGGGLVQPGGSLRLSCAGSGFTFSNYGMSWVRQAPGKGLEWVASIRSGGGRTYYSDNVKGRFTISRENAKNSLYLQMNSLRAEDTAVYYCVRYDHYSGSSDYWGQGTLVTVSS VL: DVVMTQSPLSLPVTLGQPASISCKSSQSLLDSDGKTYLNWLQQRPGQSPRRLIYLVSKLDSGVPDRFSGSGSGTDFTLKISRVEAEDVGVYYCWQGTHFPRTFGGGTKVEIKR
–	≤ 2	~1	4.29e+07	23.3	0.00343	147000	humanized 12A11 version 1 (antibody, V domains shown, Variable domains only; also called h12A11v1; 12A11v1) VH: QVQLVESGGGVVQPGRSLRLSCAFSGFSLSTSGMSVGWIRQAPGKGLEWLAHIWWDDDKYYNPSLKSRLTISKDTSKNTVYLQMNSLRAEDTAVYYCARRTTTADYFAYWGQGTTVTVSS VL: DVVMTQSPLSLPVTPGEPASISCRSSQSIVHSNGNTYLEWYLQKPGQSPQLLIYKVSNRFSGVPDRFSGSGSGTDFTLKISRVEAEDVGVYYCFQSSHVPLTFGQGTKLEIK
